Test [1] deals with Coproheme decarboxylase from Geobacillus stearothermophilus (HemQ), His-tag partially cleaved (Geobacillus stearothermophilus). Description: cryo-EM structure; single particle reconstruction, purified protein on glow-discharged gold Quantifoil R 1.2/1.3 grids, 50 mM HEPES pH 7.5, 100 mM NaCl; C5 and C1 symmetry.
For test [2] the target is unchanged. Description: SEC; Superdex 200 10/300, 1 ml/min, 50 mM HEPES pH 7.5, 100 mM NaCl; elution volume compared with the mass of a pentamer. On the technique in general: SEC sorts molecules by how far they enter the pores of the column.
Test [3] addresses Coproheme decarboxylase from Geobacillus stearothermophilus (HemQ), His-tag present in all copies (Geobacillus stearothermophilus). Description: cryo-EM structure; single particle reconstruction, purified protein on glow-discharged gold Quantifoil R 1.2/1.3 grids, 50 mM HEPES pH 7.5, 100 mM NaCl; C5 and C1 symmetry.
Test [4] has the same target. Description: SEC; Superdex 200 10/300, 1 ml/min, 50 mM HEPES pH 7.5, 100 mM NaCl; elution volume compared with the mass of a pentamer.
Test [5] deals with Coproheme decarboxylase from Geobacillus stearothermophilus (HemQ), His-tag completely cleaved (Geobacillus stearothermophilus). Description: cryo-EM structure; single particle reconstruction, purified protein on glow-discharged gold Quantifoil R 1.2/1.3 grids, 50 mM HEPES pH 7.5, 100 mM NaCl; C5 and C1 symmetry.
Test [6] has the same target. Description: SEC; Superdex 200 10/300, 1 ml/min, 50 mM HEPES pH 7.5, 100 mM NaCl; elution volume compared with the mass of a pentamer.

One may read the stoichiometry N as a count of units in the complex or per binding partner.

For the substance “Coproheme decarboxylase from Geobacillus stearothermophilus (HemQ), His-tag partially cleaved (enzyme)”, the stoichiometry N in test [1] and in test [2] was 5 throughout.
For the substance “Coproheme decarboxylase from Geobacillus stearothermophilus (HemQ), His-tag present in all copies (enzyme)”, the stoichiometry N in test [3] and in test [4] was 5 each time.
With “Coproheme decarboxylase from Geobacillus stearothermophilus (HemQ), His-tag completely cleaved (enzyme)”, the stoichiometry N in test [5] and in test [6] was 5 in each case.

Values taken from paper PMC9619061.
